Here are results for two molecules from PMC5604967, “Defining the molecular basis of interaction between R3 receptor-type protein tyrosine phosphatases and VE-cadherin” (PLoS ONE, 2017).

For experiment [1], the target named is VE-cadherin-VC (VE-cadherin ectodomain and transmembrane domain fused to the C-terminal Venus fragment) (human) (UniProt P33151). The experiment is described as follows: split reporter (BiFC, NanoBiT); Venus BiFC (VN155 I152L with VC155 A206K) in live HEK293T cells, 0.5 ug of each construct, confocal microscopy 24 h after transfection; mean BiFC intensity per cell or BiFC/DeepRed ratio, compared with control pairings.
VE-cadherin-VC (VE-cadherin ectodomain and transmembrane domain fused to the C-terminal Venus fragment) (human), sequence (P33151 26-625): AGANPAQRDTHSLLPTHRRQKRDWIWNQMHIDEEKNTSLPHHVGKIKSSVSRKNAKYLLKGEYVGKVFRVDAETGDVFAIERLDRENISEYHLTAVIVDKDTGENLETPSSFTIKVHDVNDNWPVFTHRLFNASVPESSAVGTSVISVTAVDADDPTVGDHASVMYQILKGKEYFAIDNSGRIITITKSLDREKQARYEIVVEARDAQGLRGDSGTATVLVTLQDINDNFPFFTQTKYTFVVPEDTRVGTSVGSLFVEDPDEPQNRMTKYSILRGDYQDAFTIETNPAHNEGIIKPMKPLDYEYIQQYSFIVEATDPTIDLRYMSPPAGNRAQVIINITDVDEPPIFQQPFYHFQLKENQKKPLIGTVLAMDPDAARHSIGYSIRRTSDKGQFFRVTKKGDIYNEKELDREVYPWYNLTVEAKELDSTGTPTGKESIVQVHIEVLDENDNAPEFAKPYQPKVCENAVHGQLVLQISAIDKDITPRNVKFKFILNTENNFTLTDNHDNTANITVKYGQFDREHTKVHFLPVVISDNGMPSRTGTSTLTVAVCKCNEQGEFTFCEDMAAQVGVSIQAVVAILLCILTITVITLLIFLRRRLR

For a further experiment, the target named is T1, bFos BiFC construct (UniProt P01100 118-210).
T1 construct: transcription factor Fos, the construct called bFos
T1 sequence (P01100 118-210): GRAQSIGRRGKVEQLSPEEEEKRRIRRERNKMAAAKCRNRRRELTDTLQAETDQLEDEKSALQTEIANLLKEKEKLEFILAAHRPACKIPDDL
The experiment is described as follows: split reporter (BiFC, NanoBiT); validation of the quantitative BiFC analysis with bJun/bFos (positive) and bJun/bΔFos (negative); BiFC/DeepRed ratio and mean BiFC intensity; details in S1-S4 Figs. The note with it: partners not purified.

Turning to “VE-PTP-VN (vascular endothelial protein tyrosine phosphatase, ectodomain and transmembrane domain, fused to the N-terminal Venus fragment) (domain or fragment)”, in experiment [1], the S/N (median BiFC/DeepRed ratio over that of the negative pairing) came out at 6.5 and the fold mean BiFC value over controls was 2 to 3 fold.

B1: bJun BiFC construct (domain or fragment, UniProt P05412 257-318, looked up)
chain: RKRMRNRIAASKCRKRKLERIARLEEKVKTLKAQNSELASTANMLREQVAQLKQKVMNHVNS
notes: transcription factor Jun, the construct called bJun
As for B1, in the experiment with bFos BiFC construct, the “S/N (median BiFC/DeepRed ratio of the positive pairing over that of the negative pairing bJun/bΔFos)” value came out at 7.7 and the “fold difference in mean BiFC fluorescence intensity over bJun/bΔFos” value amounted to 6 fold.
